Measurements: patent US20210283054A1

Experiments:
[1] = target: Fluorogenic Homopolymer (DP=20) of NorGly-E(EDANS)…(dabcyl)GSGSG-NH2; experiment: cell-based or functional assay
[2] = target: NorGly-E(EDANS)…(dabcyl)GSGSG-NH2; experiment: cell-based or functional assay
[3] = test system: T1, Thrombin Homopolymer (30 mer)
T1 sequence: GALVPRGSGERDG

[4] = test system: T2, Thrombin Homopolymer (10 mer)
T2 sequence: GALVPRGSGERDG

[5] = test system: T3, Thrombin Homopolymer (20 mer)
T3 sequence: GALVPRGSGERDG

[6] = test system: T4, thrombin substrate monomer (norbornene-GALVPRGSGERDG-NH2)
T4 sequence: GALVPRGSGERDG

Q: With Pronase (Roche, cat. #10165921001) as the substance, how does the Homopolymer V0 (initial velocity of proteolysis) [1] read?
A: 0.0021 µM/min

Q: And the Monomer V0 (initial velocity of proteolysis) [2]?
A: 0.2 µM/min

Q: And the fold faster initial rate (V0) of the monomer than of the homopolymer [2]?
A: 17 to 95 fold

Q: thrombin (Sigma, cat. #T6884-100UN) was tested. Which “proteolytic cleavage by RP-HPLC” value [3] did it give?
A: homopolymers at several degrees of polymerization were resistant to cleavage relative to the monomer, albeit not completely shut off from proteolysis

Q: And the “proteolytic cleavage by RP-HPLC” value [4]?
A: homopolymers at several degrees of polymerization were resistant to cleavage relative to the monomer, albeit not completely shut off from proteolysis

Q: And the “proteolytic cleavage by RP-HPLC” value [5]?
A: homopolymers at several degrees of polymerization were resistant to cleavage relative to the monomer, albeit not completely shut off from proteolysis

Q: And the “proteolytic cleavage by RP-HPLC” value [6]?
A: the monomeric peptide was readily degraded by thrombin
